{"source": "patent US20240352419A1", "about": "“METHODS AND COMPOSITIONS FOR DIFFERENTIATION OF PLURIPOTENT STEM CELLS AND DERIVED HEMATOPOIETIC LINEAGE CELLS” (NUWACELL BIOTECHNOLOGIES CO., LTD., priority 2022, published 2024)", "key": {"[1]": {"tested_on": "K562 cells", "assay": "Cytotoxicity of Stage 3 iNK cells by CFSE/7AAD assay", "type": "cell-based", "conditions": "added to Stage 3 medium (IL-10 20 ng/mL, IL-18 50 ng/mL), E:T 3:1, 4 hr, FIG. 13A", "protocol": "hiPSCs were prepared as described in CN108373998B. On Day −1, Embryoid body (EB) formation (Stage 1-1) was carried out by placing individualized hiPSCs in E8 medium containing 10 μM Blebbistatin in T25 flasks on a bellydancer and culture overnight. On Day 0, lateral mesoderm differentiation (Stage 1-2) was initiated by changing the medium to a Stage 1-2 differentiation medium comprising IF-4 basal medium and supplemented with BMP4 (25 ng/mL), VEGF (15 ng/ml), bFGF (0.5 ng/mL) and CHIR99021 (4 μM) for 2 days. On Day 2, lateral mesoderm differentiation (Stage 1-3) continued for 1 day in a Stage 1-3 differentiation medium comprising IF-4 basal medium and supplemented with BMP4 (25 ng/mL), VEGF (50 ng/mL) and bFGF (0.5 ng/mL) and CHIR99021 (1 μM). On Day 3, HE specification (Stage 1-4) was initiated by adding a Stage 1-4 differentiation medium comprising IF-4 basal medium and supplemented with VEGF (15 ng/ml), bFGF (5 ng/ml), XAV939 (5 μM) for 1 day. […] On Day 11 of co-culture, iNK cells were collected and stained with CD56-PE antibody (BD, #555516), the percentage of CD56+ cells was analyzed by flow cytometry. The cytotoxicity of Stage 3 iNK cells towards K562 cells was detected by CFSE/7AAD assay after 4 hr co-culture at E:T of 3:1."}, "[2]": {"tested_on": "iNK cells", "assay": "Stage 3 expansion of iNK cells co-cultured with feeder cells", "type": "cell-based, human", "conditions": "IL-18 (10-50 ng/mL) combined with IL-2 (100 IU/mL) vs IL-2 only, Stage 3, 2 weeks, FIG. 13B", "protocol": "hiPSCs were prepared as described in CN108373998B. On Day −1, Embryoid body (EB) formation (Stage 1-1) was carried out by placing individualized hiPSCs in E8 medium containing 10 μM Blebbistatin in T25 flasks on a bellydancer and culture overnight. On Day 0, lateral mesoderm differentiation (Stage 1-2) was initiated by changing the medium to a Stage 1-2 differentiation medium comprising IF-4 basal medium and supplemented with BMP4 (25 ng/ml), VEGF (15 ng/ml), bFGF (0.5 ng/ml) and CHIR99021 (4 μM) for 2 days. On Day 2, lateral mesoderm differentiation (Stage 1-3) continued for 1 day in a Stage 1-3 differentiation medium comprising IF-4 basal medium and supplemented with BMP4 (25 ng/ml), VEGF (15 ng/mL) and bFGF (0.5 ng/mL) and CHIR99021 (1 μM). On Day 3, HE specification (Stage 1-4) was initiated by adding a Stage 1-4 differentiation medium comprising IF-4 basal medium and supplemented with VEGF (15 ng/ml), bFGF (5 ng/ml), XAV939 (5 μM) for 1 day. On Day 4 (the end of Stage 1-4), HP differentiation (Stage 1-5) in was initiated by adding a Stage 1-5 differentiation medium comprising IF-4 basal medium and supplemented with SCF (10 ng/ml), Flt3L (10 ng/ml), VEGF (15 ng/ml) and bFGF (5 ng/mL). […] On Day 14 of co-culture, iNK cells were collected and stained with CD56-PE antibody (BD, #555516), and the percentage of CD56+ cells was analyzed by flow cytometry. […]"}}, "data": [{"substance": "IL-18: interleukin added to Stage 3 expansion and maturation medium", "values": [{"measurement": "cytotoxicity of iNK cells", "setting": "[1]", "result": "significantly improve"}, {"measurement": "expansion fold of iNK cells", "setting": "[2]", "result": "improve the expansion fold"}]}]}
